*: point of attachment. Biotin = O=C1N[C@H]2[C@H](CS[C@H]2CCCCC(=O)*)N1; AEEA = NCCOCCOCC(=O)O
B1: Bio-PepK-StA (peptide)
peptide: {Biotin-AEEA}-KIAALKEKIAALKEKIAALKE-NH2
SMILES: CC[C@H](C)[C@H](NC(=O)[C@H](CCCCN)NC(=O)COCCOCCNC(=O)CCCC[C@@H]1SC[C@@H]2NC(=O)N[C@@H]21)C(=O)N[C@@H](C)C(=O)N[C@@H](C)C(=O)N[C@@H](CC(C)C)C(=O)N[C@@H](CCCCN)C(=O)N[C@@H](CCC(=O)O)C(=O)N[C@@H](CCCCN)C(=O)N[C@H](C(=O)N[C@@H](C)C(=O)N[C@@H](C)C(=O)N[C@@H](CC(C)C)C(=O)N[C@@H](CCCCN)C(=O)N[C@@H](CCC(=O)O)C(=O)N[C@@H](CCCCN)C(=O)N[C@H](C(=O)N[C@@H](C)C(=O)N[C@@H](C)C(=O)N[C@@H](CC(C)C)C(=O)N[C@@H](CCCCN)C(=O)N[C@@H](CCC(=O)O)C(N)=O)[C@@H](C)CC)[C@@H](C)CC

Key:
[1] = target: Fluo-PepE (fluorescein (5(6)-carboxyfluorescein)-Aoa (8-amino-3,6-dioxa-octanoic acid) on the N-terminus; C-terminal amide); experiment: fluorescence polarisation
[2] = target: B1; experiment: fluorescence polarisation
[3] = target: activated PepE-Bio (N-terminal acetyl; C-terminal Aoa-Aoa-Lys(biotin)-NH2; glutamate side chains activated with EDC/NHS (NHS esters)); experiment: cross-linking

B1
binding result [1]: binds

B2: PepE(-4C) (peptide)
peptide: {fluorescein-AEEA}-EIAALEREIAALEREIA-NH2
fold drop in affinity against full-length PepE [2]: ~40 fold

B3: PepE(-5C) (peptide)
peptide: {fluorescein-AEEA}-EIAALEREIAALEREI-NH2
fold drop in affinity against full-length PepE [2]: ~40 fold

B4: Bio-PepK (peptide)
peptide: {Biotin-AEEA}-KIAALKEKIAALKEKIAALKE-NH2
SMILES: CC[C@H](C)[C@H](NC(=O)[C@H](CCCCN)NC(=O)COCCOCCNC(=O)CCCC[C@@H]1SC[C@@H]2NC(=O)N[C@@H]21)C(=O)N[C@@H](C)C(=O)N[C@@H](C)C(=O)N[C@@H](CC(C)C)C(=O)N[C@@H](CCCCN)C(=O)N[C@@H](CCC(=O)O)C(=O)N[C@@H](CCCCN)C(=O)N[C@H](C(=O)N[C@@H](C)C(=O)N[C@@H](C)C(=O)N[C@@H](CC(C)C)C(=O)N[C@@H](CCCCN)C(=O)N[C@@H](CCC(=O)O)C(=O)N[C@@H](CCCCN)C(=O)N[C@H](C(=O)N[C@@H](C)C(=O)N[C@@H](C)C(=O)N[C@@H](CC(C)C)C(=O)N[C@@H](CCCCN)C(=O)N[C@@H](CCC(=O)O)C(N)=O)[C@@H](C)CC)[C@@H](C)CC
binding result [3]: binds

B5: PepE(-1C) (peptide)
peptide: {fluorescein-AEEA}-EIAALEREIAALEREIAALE-NH2
binding result [2]: binds

B6: PepE(-2C) (peptide)
peptide: {fluorescein-AEEA}-EIAALEREIAALEREIAAL-NH2
binding result [2]: binds

B7: PepE(-3C) (peptide)
peptide: {fluorescein-AEEA}-EIAALEREIAALEREIAA-NH2
fold drop in affinity against full-length PepE [2]: ~40 fold

— publication PMC10549240 (RSC Chemical Biology, 2023)
